# Tested on: HLA class I (e.g. HLA-A2) expressing adherent 293T cells
# Test: CTL assay on reverse transfected microarray (caspase activation, fluorescent Z-VAD)
# Type: cell-based, human
# Conditions: HLA-matched CD8+ T cells from prostate cancer patients incubated 4 hours on array; red fluorescent signal = positive response
# From the text: Additional patient samples were procured for the cytotoxic T Lymphocyte (CTL) assay. […] (PBMC) were isolated from blood drawn from patients with relevant clinical parameters, and with patient consent. Clinical data generally included patent history, physiopathology, and parameters relating to prostate cancer physiology. PBMCs were collected from 6 prostate cancer patients that met the study requirements. Duplicate samples were obtained from a single patient.
# The 192 selected DATAS fragments were PCR amplified out of the library vector and directionally cloned into a eukaryotic expression vector down stream from staggered start site initiation codons. This configuration allows the DATAS fragment to be expressed in all the open reading frames, which is required because the correct reading frame is not always readily apparent.
# Plasmid preparations were performed and the expression vectors containing the selcted DATAS fragment clones were re-arrayed into 96 well plates, which were subsequently used to spot glass slides for use in the CTL assay previously disclosed in International Patent Application No. PTC/US2005/032392, the disclosure of which is incorporated by reference in its entirety.
# A design file containing the desired microarray positions of the DATAS expression vectors was uploaded into a high resolution scanner. The expression vectors containing the DATAS fragments were mixed with gelatin and lipofectamine and then spotted in duplicate in a pattern that matched the design file uploaded into the high resolution microarray scanner. The following positive controls, negative controls and experimental samples were spotted on the array.
# The spotted arrays were then overlaid with HLA class I (e.g. HLA-A2) expressing adherent 293T cells and cultured for 48-72 hours to allow cells time to express vector-encoded transcripts.
# The assay for CTL reactivity was then performed by incubating HLA-matched CD8^+ T cells from normal and prostate cancer patients on cultured reverse transfected microarray slides for 4 hours. Prior to incubation with the array, T cells from normals or patients may need to be expanded in vitro, to a small or large extent, to enhance the frequency of responding T cells. An inhibitor of activated caspase, fluorescence-tagged (sulfo-Rhodamine)-Z-VAD, is present throughout the cell incubation to bind caspases that become activated when antigen expressing adherent cells on certain spots are induced to die by the CTL. The slides are then washed to remove unbound fluorescent Z-VAD and 2-color (Green and Red) fluorescence images of the microarray slides are obtained with the microarray scanner.
# Analysis and confirmation of data is then determined by visual inspection of the scanned image. The success of the reverse transfection is evaluated by observing green fluorescence at EGFP vector control spots. Then the fluorescence threshold(s) are adjusted on microarray scanner as necessary to establish relevant background and positive control signal intensities. […] Using the coordinate locations for the spots, the cDNAs yielding positive responses are identified.
row,Molecule,Patient ID with positive hit
1,"No. 18: DATAS fragment; golgi SNAP receptor complex member 2; exon extension (nucleic acid, listed as Homo sapiens) DNA: GGCCTTAGGGGCACGAGGATGTGAATCGACCTACTACTTAATATAATGGCTGTGAGAAAAGGCCTCTTTCCTTTCCTTTCCACTTTTGCTCCACCCTATCAGGAGCCAGAAAGGCCTGATGGTGACAAGGTGTGAACCGTGTGGACAGTCCTGCACACAGGGCTCACTGTGGACACCTTCCCAGGGCACGCATCAGCTGTGTGAACAAAGCCACCAAAGCCATTCTTTCCCTCCCCCGC",FRJY5
2,"No. 13: DATAS fragment; ATPase, Class V, type 10A; exon extension (nucleic acid, listed as Homo sapiens) DNA: GGAGGAGGTCGGCATCACCAGTAACAGGAATCCCTCTCCCTTTGAAGGCAGTGATGGCCAGCGACTTTGCAGTGCCGAAATTCCGATACCTGGAGAGGCTCTTGATTCTTCACGGGCATTGGTGCTACTCCCGACTTGCCAACATGGTGCTGTACTTCTTCTACAAAAACACAATGTTCGTGGGCCTCCTGTTTTGGTTCCAGTTTTTCTGTGGCTTCTCTGCATCTACCATGATTGACCAGTGGTATCTAATCTTCTTTAATCTGCTCTTCTCGTCACCTCCAACGA",MSMPB
3,"No. 19: DATAS fragment; GenBank human mRNA AK054845; novel exon (nucleic acid, listed as Homo sapiens) DNA: GGGGACAGGCAGAGGTTGCACTGCACTCCAGCCTGGGTGACAGATCAAGATTCTGTCTCAAGTAATAATAATGATGATGATGATGATGATGATGATGATGATAATAACACACCTTGTTAATGTTAATTCACTGTGTTAAATCAATTAACTCATTTTCTCATAATTACCCTTGAACGAGTAAGTTATTGACATTCTCTCCATGGGAAAAAAAACCCTTGGAGAAAGGTAACTTGAATATGGCCAAATGGGCAATTTGGATAGAACTGGGATTTGAACCTAGGACATCTGATTCCACATCCTTTTCATGAGCCACAATGCTCTACATGTGGTTTTATTTCTTGGATCACATGTAACACATCCATAAAAGTGCCTCCCCCCG",EYGRT
4,"No. 3: DATAS fragment; aminoacylase 1; exon extension (nucleic acid, listed as Homo sapiens) DNA: CCAGGCAGCTGGCGAGGGGGTCACCCTAGAGTTTGCTCAGGTATGGACTTGGGACATGTGATGGGAGAGTGTGGGAGCCGGGGGAGACCCAAGTGTGCAACAGTGGAGTGTGTGCTTGGTGTGTCTGCATATGTCTGGGCATTTCTTTATCTGTGACAGACACATTTTATTCCAACAAGCATTCATTGTAGAGGCCACTGTGGGTGCTGGGGAATGCTGTGGGGAGTAAAATTAGGCACAGTTCATGCCCTTGTATGGTGAAACGGGGAGATATAAATCAAACATTTATGTGATATTACTTTTTTCTGAGAGAATCTCACTCCGTCAC",MSMPB
5,"No. 14: DATAS fragment; zinc finger protein 142 (clone pHZ-49); exon extension (nucleic acid, listed as Homo sapiens) DNA: CGGACCAGGACAAAATCATGACGATGCTCCATCCCAAGCCTTCCAGGTTACAAACCGCCTTTCCAGTTCGCTGGCTCTTATGATCCAGCTCCTGCCCGACGATGTGGACACTGTCATCACCTCCATTTTACAGATAGGAAAGCTGAGGCCCAGAGAAGCGAAGCGACTGTGTCTGTCCAAGACCACGCGCCCTCCTCCCTGTC",MSMPB
6,"No. 2: DATAS fragment; melanoma assoc. antigen (mutated) 1; exon extension (nucleic acid, listed as Homo sapiens) DNA: GGCTCAGGGGGCACGTTTGCGTTTGGACCTGTCTGCGCGTTCTCCTGCGTGGCAGTCCTGATTTCCATACTTCTGGAGAATCCATTTCGTTAACACTGAAAGCCAGTTCTCTTTTCCTGGCAGTTTTTTTCATTTTATTTTTGGCATTTTTTACAAGATACCGTTCGGGAAAGGCTTTTGAAAGGACGGAAGCGTATTCACTGTGCGCCAGTACTCCTGGCTGTGCTGTGGTTTCTCCCGACGTGCACATCGATCTCGTATGTGTGGCATCTGATATTAAACGGGAGGTTTTAAGAAGCGTCTGCCGTGATCATGGAGCTTCGGAAGCGGGAATGGTTCTTCCGGGTTTGCTGTTTTGTCTGTTTCCCCCTTGTGTGGTTTCCGCCTGCGACAGTTCCAGAATTTGCTCTCCCACTCAGTGTGCTCTGCAGCTG",EYGRT; MSMPB
7,"No. 21: DATAS fragment; GenBank human mRNA AK123820; exon extension (nucleic acid, listed as Homo sapiens) DNA: GGCGGCAGGTCTAATCTGGCACACTTGCTAACTTCTAATAAAGAATCAAATGGTCTTCCAACTCACATAATGACTAATTCTAAAGCATGCAACCTCAAAGTACTACATTCTCCCTGTTCTAGAAATACAACCCTAGAGGGCCAGTCTTCCTTCAGCATTCAAATATTGAGTAGAACAACTGAACTGTAAGGTTCAACTAAAGGAATGCAACTGTGACTTGAGCTGTGGAACGGCTATGGCCTAAGTCAAGAATTCTCAACCTCCCAC",EYGRT
8,"No. 15: DATAS fragment; GenBank Human mRNA AF116698 (intronic hit); genomic hit (nucleic acid, listed as Homo sapiens) DNA: CGGCGCACCTGGTACGTGGTGTATGTTCCATTTGTGCTGGCCACGGTGATGATGATGATGATGCCATCTCTCCGGCTACACTGCGAGCACAGATCACAGCTCTCTGTAGCTGATGCTGGCTCTACCCACTGTATTCGGG",MSMPB
9,"No. 1: DATAS fragment; chromosome 14 open reading frame 122; exon extension (nucleic acid, listed as Homo sapiens) DNA: CTACCGGGGGAAGGGTCAAAGAGCGTGCCGAAGCGCTGGAGGGAGCTTCACGGACGCGAGCTAGGCACCGGCTCGCCTAATCCGGTACTAATCCGGCTTGCTGCTTCCCGTCCAGGCCTCGCTCGCCATGGGGGAGGTGGAGATCTCGGCCCTGGCCTACGTGAAGATGTGCCTGCATGCTGCCCGGTACCCACACGCCGCAGTCAACGGGCTGTTTTTGGCGCCAGCGCCGCGGTCTGGAGAATGCCTGTGCCTCACCGACTGTGTGCCCCTCTTCCACAGCCACCTGGACCTGTCCGTCATGTTGGAGGTCGCCCTCAACCAGGTGCCTCCGTTGCAT",EYGRT

# Tested on: PSMA messenger RNA (mRNA)
# Test: not given
# Conditions: LNCaP prostate cancer cell line after exposure; cited from earlier work
row,Molecule,PSMA messenger RNA (mRNA) down-regulated
1,C[C@]12CCC(=O)C[C@@H]1CC[C@@H]1[C@@H]2CC[C@]2(C)[C@@H](O)CC[C@@H]12 [5-alpha-dihydroxytestosterone],8-10 fold

# Reference: US20120141376A1, “PROSTATE SPECIFIC TRANSCRIPTS AND THE USE THEREOF FOR PROSTATE CANCER THERAPEUTICS AND DIAGNOSTICS” (priority 2006, published 2012)
